Where a chain is given by its changes, count along the chain named.
What was measured:
Test in all cases: flow cytometry on cells; biotinylated ligand at various concentrations, 30 min at 4 °C in PBS + 0.1% BSA, on Drosophila S2 cells displaying the partner (C-terminal FLAG, rat Neurexin-1 transmembrane helix); Cy5-streptavidin; gated on anti-FLAG positive cells; MFI fit to a single-site model; apparent KD
Details in all cases: one partner purified
[1] = biological target: T1, hRobo3 FN1-3 R630A, biotinylated (human, UniProt Q96MS0 549-870, R630A, biotin on the Avi-tag (BirA))
T1 construct: human Robo3, FN domains 1-3, P549-L870; source: High Five cells (baculovirus), purified, biotinylated with BirA (general methods)
T1 sequence (looked up): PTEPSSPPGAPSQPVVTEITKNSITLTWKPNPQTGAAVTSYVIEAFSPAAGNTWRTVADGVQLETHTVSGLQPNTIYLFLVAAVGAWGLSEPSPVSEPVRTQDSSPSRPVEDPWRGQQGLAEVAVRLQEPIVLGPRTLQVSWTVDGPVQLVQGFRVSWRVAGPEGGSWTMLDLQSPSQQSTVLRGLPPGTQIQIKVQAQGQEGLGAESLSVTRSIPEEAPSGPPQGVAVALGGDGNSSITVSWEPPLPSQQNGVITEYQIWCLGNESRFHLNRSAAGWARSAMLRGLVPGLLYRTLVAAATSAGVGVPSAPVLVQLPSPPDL

[2] = biological target: T2, hRobo3 FN1-3, biotinylated (wild type) (human, UniProt Q96MS0 549-870, biotin on the Avi-tag (BirA))
T2 construct: human Robo3, FN domains 1-3, P549-L870; also called WT hRobo3 FN; Robo3FN1-3 WT; source: High Five cells (baculovirus), purified (Ni-NTA, SEC), biotinylated with BirA
T2 sequence (looked up): T1 sequence (looked up) with A82R

[3] = biological target: T3, hRobo3 FN1-3 N600A/T601A, biotinylated (human, UniProt Q96MS0 549-870, N600A | T601A, biotin on the Avi-tag (BirA))
T3 construct: human Robo3, FN domains 1-3, P549-L870; source: High Five cells (baculovirus), purified, biotinylated with BirA (general methods)
T3 sequence (looked up): T1 sequence (looked up) with N52A, T53A, A82R

[4] = biological target: T4, hRobo3 FN1-3 E639A, biotinylated (human, UniProt Q96MS0 549-870, E639A, biotin on the Avi-tag (BirA))
T4 construct: human Robo3, FN domains 1-3, P549-L870; source: High Five cells (baculovirus), purified, biotinylated with BirA (general methods)
T4 sequence (looked up): T1 sequence (looked up) with A82R, E91A

[5] = biological target: T5, hRobo3 FN1-3 W635A, biotinylated (human, UniProt Q96MS0 549-870, W635A, biotin on the Avi-tag (BirA))
T5 construct: human Robo3, FN domains 1-3, P549-L870; source: High Five cells (baculovirus), purified, biotinylated with BirA (general methods)
T5 sequence (looked up): T1 sequence (looked up) with A82R, W87A

- Kd [1]: ≥ 100000 nM
- Kd [2]: 890 nM
- Kd [3]: 2900 nM
- Kd [4]: 1100 nM
- Kd [5]: 2900 nM
B1: hNELL2 EGF1-6 displayed on S2 cells (domain or fragment)
chain: not shown
notes: human NELL2, EGF domains 1-6, G397-T637; also called NELL2EGF1-6 WT (Actin 5C, C-terminal FLAG); FLAG-tagged NELL2 EGF1-6; source: Drosophila S2 cells, transiently transfected, on the cell surface; not shown: FLAG, C-terminal, kept; transmembrane helix of rat Neurexin-1, C-terminal, kept

From article PMC7083938, “NELL2-Robo3 complex structure reveals mechanisms of receptor activation for axon guidance” (Nature Communications, 2020)
